Residue numbers refer to the chain shown, from its start. One block for each binder: values may come before it.
Target: T1, hCD96-humanIgG1 fusion protein (human) (UniProt P40200)
T1 sequence: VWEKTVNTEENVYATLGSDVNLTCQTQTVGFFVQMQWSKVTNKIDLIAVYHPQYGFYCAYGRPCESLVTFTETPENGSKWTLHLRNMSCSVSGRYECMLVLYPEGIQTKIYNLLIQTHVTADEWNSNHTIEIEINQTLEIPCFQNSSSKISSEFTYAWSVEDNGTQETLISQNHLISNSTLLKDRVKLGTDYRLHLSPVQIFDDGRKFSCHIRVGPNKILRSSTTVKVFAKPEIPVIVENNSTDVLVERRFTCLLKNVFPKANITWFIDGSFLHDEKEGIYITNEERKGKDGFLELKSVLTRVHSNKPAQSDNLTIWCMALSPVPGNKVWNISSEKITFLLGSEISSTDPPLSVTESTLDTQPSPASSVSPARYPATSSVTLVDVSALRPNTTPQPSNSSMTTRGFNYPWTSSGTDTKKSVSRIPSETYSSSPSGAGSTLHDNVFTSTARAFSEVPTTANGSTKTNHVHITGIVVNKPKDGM
Test: SPR (Biacore), hCD96-hFc captured by anti-huFc

B2: BL006-19-134G5-134K4 (antibody, V domains shown)
VH: QVQLQQPGAELVKPGASVKLSCKASDYTFTTYWMHWVKQRPGQGLEWIGMIHPNSDTTLYNEKFRSQATLTVDKSSSTAYIQLSRLTSEDSAVYYCVVTGTNFDYWGQGTTLAVSS
VL: QVVLTQSPAIMSASPGEKVTMTCSATSSVSYMYWYQQKPGSSPKPWIYRTSNLASGVPVRFSGSGSGTSYSLTISSMEAEDAATYYCQQWSSNPLTFGGGTKLELK
Kd: 0.707 nM
koff: 9.88e-05 s⁻¹
kon: 140000 M⁻¹ s⁻¹

B3: BL006-19-363G1-363K1 (antibody, V domains shown)
VH: B2 VH with D26G, M34I, H52L, D56G, L59I, T78A, I81M, V97A, A113T
VL: B2 VL with V2I, T26S, S66F, S76N, G99T
Kd: 3.5 nM
koff: 0.000585 s⁻¹
kon: 167000 M⁻¹ s⁻¹

B4: BL006-19-55G10-55K7 (antibody, V domains shown)
VH: QVQLQQSGAEVVRPGTSVKMSCKAAGYTFTDNWIDWVKQRPGHGLDWIGNIFPGGNYTNYNEKFKGKATLTADTSSSTAYMQLINLTSEDSAIYYCVRAVADSQFAYWGQGTLVTVSA
VL: B2 VL with V2I, A13V, T26S, S28R, S30T, G99A
Kd: 3.45 nM
koff: 0.000501 s⁻¹
kon: 145000 M⁻¹ s⁻¹

B5: BL006-4-31G1-31K3 (antibody, V domains shown)
VH: QVQLQQSGPELVKPGASVKISCKTSGFTFTDYYINWVKQRPGQGLEWIGWIFPGSGSSFYSEIFKGQATLTVDKSSSTAYMLLSSLTSEDSAVYFCARRNYYGYGAYAMDYWGQGTSVTVSS
VL: DIQMNQSPSSLSASLGDTITITCRASQSINFWLSWYQQKPGNIPKLLIYKASNLHTGVPSRFSGSGSGTDFTLTISSLQPEDIATYYCLQGQSYPLTFGGGTKLEIK
Kd: 13.2 nM
koff: 0.0007 s⁻¹
kon: 53100 M⁻¹ s⁻¹

B6: BL006-4-52G6-52K7 (antibody, V domains shown)
VH: QVQLQQPGAELVKPGASVKLSCKASGYSFTSYWMHWVKQRPGQGLEWIGQIDPSDSYTNYNQKFKGKATLTVDKSSSTAYMQLSSLTSEDSAVYYCASGNYGPYLGNYFDYWGQGTTLTVPS
VL: DIVMSQSPSSLVVSVGEKVTMSCKSSQSLLHSTNQKNYLAWYQQKPGQSPKLLIYWASTRESGVPDRFTGSGSGTDFTLTISSVKAEDLVVYYCQQYYNYPYTFGGGTKLEIK
Kd: 2.83 nM
koff: 0.000363 s⁻¹
kon: 128000 M⁻¹ s⁻¹

B7: BL006-19-190G4-190K6 (antibody, V domains shown)
VH: EVQLVESGGGLVQPGGSLKLSCAASGFTFSNYGMSWVRQTPDKRLELVATINSNGGSTYYPDSVKGRFTISRDNAKNTLYLQMSSLKSEDTAMYYCTKRGAWYFDVWGTGTTVTVSS
VL: DIQMTQSSSSFSVSLGDRVTITCKASEDIYNRLAWYQQKPGNAPRLLISSATSLETGVSSRFSGSGSGKDYTLSITSLQTEDVATYYCQQYWTTPTWTFGGGTKLEIK
Kd: 2.97 nM
koff: 0.000444 s⁻¹
kon: 150000 M⁻¹ s⁻¹

B8: BL006-19-352G9-352K8 (antibody, V domains shown)
VH: QVQLQQPGAELVKPGASVKLSCKASGYTFTSYWMHWVKQRPGQGLEWIGMIHPNGDITDYNEKFKSKATLAVDESSSTAFMQLNSLTSEDSAFYYCARASYYGSLYWGQGTTLTVSS
VL: DIVMTQSQKFMSTSVGDRVSVTCKASQNVGIAVAWYQKKPGQSPKTLIYSASTRYTGVPDRFTGSGSGTDFTLTINDVQSEDLADYFCQQYGSSPLTFGAGTKLELK
Kd: 23.4 nM
koff: 0.000796 s⁻¹
kon: 34100 M⁻¹ s⁻¹

B10: BL006-4-20G5-20K5 (antibody, V domains shown)
VH: EVQLAESGGDLVTPGGSLKLSCAASGFTFSSYGMSWVRQTPDKRLEWVATITHGGSYIYYPDSVKGRFTLSRDNAKNTLYLQMSSLKSEDTAMYYCIRHADYARFAYWGQGTLVTVSA
VL: DIQMTQTTSSLSASLGDRVTISCRPSQDISNYLNWYQQKPDGTVKLLIYYTSRLHSGVPSRFSGSGSGTDYSLTISNLEQEDIATYFCQQGNTLPWTFGGGTKLEIK
Kd: 0.825 nM
koff: 0.00057 s⁻¹
kon: 691000 M⁻¹ s⁻¹

B11: BL006-11-5G1-5K3 (antibody, V domains shown)
VH: EVQLVESGGGLVKPGGSLKLSCAASGFTFSSYAMSWVRQTPEKRLEWVAAINTDGASTYFPATVKDRFTISRDNAKNTLYLQMSSLRSEDTALYYCARPLEPGSWFAYWGQGTLVTVSA
VL: DVLMTQTPLSLPVSLGDQASISCRSSQSIVHSNGNTYLEWYLQKPGQSPKVLIYKVSNRFSGVPDRISGSGSGTDFTLKISRVEAGDLGVYYCFQGSHVPYTFGGGTKLEIK
Kd: 3.47 nM
koff: 0.000579 s⁻¹
kon: 167000 M⁻¹ s⁻¹

B13: BL006-19-21G1-21K1 (antibody, V domains shown)
VH: QVQLQQPGAELVKPGASVKMSCKASGYTFISYWITWVKQRPGQGLEWIGDIYPGSGHTNYNEKFKSKATLTVDTSSSTAYMQLSSLTSEDSAVYYCARPTVEAMDYWGQGTSVTVSS
VL: QIVLTQSPAIMSASPGEKVTMTCSASSSVNYMHWYQQRSGTSPKRWIYDTSKLASGVPARFSGSGSGTSYSLTISSMEAEDAATYYCQQWSNNPLTFGAGTKLELK
Kd: 6.75 nM
koff: 0.000988 s⁻¹
kon: 146000 M⁻¹ s⁻¹

B14: BL006-19-370G9-370K16 (antibody, V domains shown)
VH: QVQLQQSGAELGRPGTSVKMSCKAAGYTFTNYWIGWVKQRPGHGLEWIGDIYPGGGYTNYNEKFKGKATLTADTSSSTAYIQLSSLTSEDSAIYYCARSGYYDGSPLAMDYWGQGTSVTVS
VL: B13 VL with A9T, N30S, R38K, N92S, L95P, A99S, L105I
Kd: 42.3 nM
koff: 0.00193 s⁻¹
kon: 45500 M⁻¹ s⁻¹

B16: BL006-9-15G1-15K5 (antibody, V domains shown)
VH: QAYLQQSGAELVRPGASVKMSCKASGYTFTSYNMHWVKQTPRQGLEWIGAVIPGNGDSFYNQKFKGKATLTVDKSSSTAYMQLSSLTSEDSAVYFCGRSSSGCIAYWGQGTLVTVSA
VL: DIVLTQSPASLAVSLGQRATISCRVSGSVDYDGDSYMNWYQQKPGQPPKLLIYAASNLESGIPARFSGSGSETDFTLNIHPVEEEDAATYYCLQSNEAPWTFGGGTKVEIK
Kd: 4.6 nM
koff: 0.00275 s⁻¹
kon: 598000 M⁻¹ s⁻¹

Stronger by Kd, values ahead:

Kd: 0.198 nM
koff: 0.00016 s⁻¹
kon: 810000 M⁻¹ s⁻¹
B1: BL006-9-1G1-1K1 (antibody, V domains shown)
VH: EVKLVESGGGLVKPGGSLKLSCAASGFTFSSYAMSWVRQTPERGLEWVAAIQSNGGSTFYPDTVKDRFTISRDNAKNTLYLQMSSLRSEDTALYYCVRGPFDYWGQGTTLTVSS
VL: QIVLTQSPAIMSASPGQKVTIPCSASSSVNYIHWFQQKLGSSPKLWIYDTSKLTPGVPARFSGSGSGTSYSLTISSMEAEDAASYFCHQWRSYPPTFGGGTKLEIK

Kd: 0.45 nM
koff: 0.000296 s⁻¹
kon: 656000 M⁻¹ s⁻¹
B9: BL006-19-183G3-183K4 (antibody, V domains shown)
VH: QVTLNESGPGILQPSQTLSLTCSFSGFSLTTYGMGVGWIRQPSGKSLEWLANIWWTEDKYYNSALKSRLTISTDTSHNQVFLKISSVDTEDTATYYCAQMGPEVYSAMDYWGQGTSVTVSS
VL: DIVMTPSQKFMSTTVGDRVSITCKASQNVGTAVAWYQQKPGHSPKLLIYSASNRNTGVPDRFTGSGSGTDFTLTISNMQSEDLADYFCHQYSRYPWTFGGGTKLEIK

Kd: 0.351 nM
koff: 0.000192 s⁻¹
kon: 548000 M⁻¹ s⁻¹
B12: BL006-8-3G9-3K4 (antibody, V domains shown)
VH: QVQLQQSGAELVRPGASVKLSCKASGYRFTDYEMEWVKQTPVHGLEWIGAIDPETGGTAYNQKFKGKATVTADKSSRTAYMELRSLTSEDSAVYYCTREGDGSYGAYWGQGTLVTVSA
VL: B11 VL with L3M, H31Y, V51L, I53M, I67F, G86E, V99A, Y101W

Kd: 0.364 nM
koff: 0.000153 s⁻¹
kon: 420000 M⁻¹ s⁻¹
B15: BL006-4-61G5-61K1 (antibody, V domains shown)
VH: EVKLEESGGGLVQPGGSMKLSCVASGFTFSNYWMNWVRQSPEKGLEWVAQIRFKSDNYATHYAESVKGRFTISRDDSKSSVYLQMHNLRAEDTGIYYCTEFAYWGQGTLVTVSA
VL: QILLTQSPAIMSASPGEKVTMTCSASSRVNSRFLNWYQQKSGVSPKLWIYGTSNLASGVPARFSGSGSGTSYSLTISSVEAEDVATYYCQQYQSDPPITFGAGTRLELI

Kd: 0.182 nM
koff: 0.000163 s⁻¹
kon: 896000 M⁻¹ s⁻¹
B17: BL006-19-29G5-29K1 (antibody, V domains shown)
VH: QVTLKESGPGILQSSQTLSLTCSFSGFSLSTFGMGVSWIRKPSGKGLEWLAHIFWDDDKRYNPSLKSRLTISKDTSSNQVFLMINSMDIADTATYYCTRGSNWFAYWGQGTLVTVSA
VL: DIVLTQSPASLAVSLGQRATISCRASESVDSYGNSFMHWYQQKPGQPPKLLIYRASNLESGIPARFSGSGSRTDFTLTINPVEADDVATYYCQQSNEDPLTFGAGTKLELK

— patent publication US20230192845A1
